Reference: the DeepSol protein solubility set

Assay: soluble on expression in E. coli; label from the status in PepcDB or PDB records

Sequence	soluble on expression in E. coli
MNSRIPEDLIERAHRGKTTKEDALLLLEVPPFELFRFADELRDLAAGDTVTYVVNRNINFTSRCTGSCGFCAFRTDDGKVLSIEEIMEKVREAEKANATEVCIQGGLLPDVGLDFYQGIVEAIKAEFPEMHVHSFSPMEVYHASRISEIPVKESLRRLKRSGLDTMPGTAAEILSDRVRKIICPAKLNTAEWIEVVTQAHAAGIPTTATMMYGHVETPEERINHMLTIREIQKETGGITEFVPLPFMPYNNPVGEKMIKEGRYATPGLEDLKVYAVSRILFHGHVDNIQASWVKLGKKFAQFSLHCGVNDLGGTLMEESISRSAGACHGEMITVDELEWMIHGAGRIPKERTTLYREAHELASRNSRKIAGCGAFE	not soluble
GPGSMSARPSVSVYSASSDSVVGTCPLPAVFTAPIRSDIVKFVHTNMAKNSRQAYAVNRLSGMNHSAHSWGTGRAVARIPRISGGGTSTSGAGAFGNMCRGGRMFAPTKIFRRWHRKINLHQKRFAVVSALAASSVPSLVMSRGHQIGNVPEVPLVVEDSIQGYEKTKEAMAFLKAIAAIDDVNRVNDSREIRAGRGKMRNRRYVARRGPMLVMPNNKGTRAFRNIFGLDLANVSALNLLHLAPGGHVGRFVIWTQSAFEQLDKIFGTFTEASAVKKGFTLPAPMLTNTDVTRIMQSEEVRRVLKPKKLQAKKASRFQTPTNGMKNRRLRLRLNPYVKRETAAAKGMRNVANRDARRKAKLARVTKAKKAATKSAKQ	not soluble
MSLGGLCPRCRGRGWCGRDRCPFLDALNEVRARLSSRNVDGYTVTAHVSWRGYPRVIAAPGVGEHRTPDEGGVLADLPYEEALKTRALTFRRYRGKRDVRNPPDLSDPEIESSISVRPVESTLQVRRRLSGASRTTPFIGPLVEGELELDGTPKVPRDLERYHEDDVKAEEAVVGLYRRGYDESYIARALSLGLLGRDRRMVPTRWSVAAVDSMVSEHLAREVRDLPVSSEYRVLSGEVFGNEMWVILRPEPLSYELVEAYEPGAPWSDRTRIAVLRDSEVKDCKEPRETGGAYFAARLAALEWCSELGKQHGITVIRIVRKEYSAPLGAWVIREAVRRAEEVFSTDDPREVWEFLREKLDDPVGEAALKVIKRGRQRTLDTFLEGHHHHHH	not soluble
MAHHHHHHMFPGEQDITGSQLAEYVREQVQASANLVVYVEDTHCDVDTIGLRRLHATIGGTAVFSGYDLYRRSKYEKVEQGLDELWTSNVVLEASAIGSLSALCDNVRMVRRHEGCTIALAPQSLMHNVAFAVHLAVGVGARFLCVGGLMDVVQCEVVSQYLYVQDELEQSRLLLEEAPKPPCAVLPDAPTDTVPEIKRRLDKKKRKK	not soluble
IDGIFIMDAEGHYLDVNPAICSAIGYTRDEFLALDWGVLSRGVDSGWAAASLARIVGGEPLREERTVWTRNGDQLTVELSAHLLPD	not soluble
MGSDKIHHHHHHMNRPLFDLDLLRALVMVADCGSFTTASARLHSTQSTVSQKVRRLEEIAGHRLLDRGTRDVRPTDAGVTVLSYARRMIALNDEMLEALSGATVALTIRLGVPDDFAAGRTTHALAAFKRDHPQVKLEVTCGLSRDICAAYDRGELDLVLIKQRRDSREAVVRWPEKLRWIDSARHPTIELDPVPLVVFPPRGLYRDDMIKAIEERGRRWRISFTTSSLSGIQAAVADGLGISVLPARAVTDDHVVLTDEHGGFAPIGNMDIAILHRPTADPMVSELTKALAAMLEHEPE	not soluble
MSLIHAGSMIDGVAKKIKTKQTIVIEDGVIIDVKSGYTKAKPNDIVIDLKNTTVTPGWMDLHVHLGSQSSPQSYSEDFYLNPEDFAYRSVPWIEKTLLAGFTTVRDVGGEVVLAARNAVNNGYINGPRIFSAGRSIGTTGGHADPSSGLNRKFRGDPGPHDAVVNGVDDAMKAVRQRYKDGSDLIKITATGGVLSVAKNGQNPQFTEEEIRAIVETAKDYEMHVAAHAHGVEGMQRAIRAGVRTIEHGTLMDRPTARLMKKYGTYYVPTVSAGEFVYEKAKEPGYFPEIVRPKALEIGPKIKKTLGMAYEEGVKIAFGTDMGVSPHGENADEFVYMVEAGMKPIDAIFAATSIAAEVLNQEDLGKIKKGMKADIVAVNGNPLKDIAVTKNVVFVMKDGVVYKQPINLKEGHHHHHH	soluble
MAKGSSDKDNGYGNIRTSTSLSICCQDSHLTTPIAPIAPELYSLKVPKDYTPETTSTMRRSLESRLAWLGRQSYVFRSLKQLETVTHNATIRTFFWKDGSVSSSTGGNDGFWIKDELHAGA	not soluble
MGSDKIHHHHHHMKRTPLFEKHVELGAKMVDFAGWEMPLYYTSIFEEVMAVRKSVGMFDVSHMGEFLVKGPEAVSFIDFLITNDFSSLPDGKAIYSVMCNENGGIIDDLVVYKVSPDEALMVVNAANIEKDFNWIKSHSKNFDVEVSNISDTTALIAFQGPKAQETLQELVEDGLEEIAYYSFRKSIVAGVETLVSRTGYTGEDGFELMLEAKNAPKVWDALMNLLRKIDGRPAGLGARDVCRLEATYLLYGQDMDENTNPFEVGLSWVVKLNKDFVGKEALLKAKEKVERKLVALELSGKRIARKGYEVLKNGERVGEITSGNFSPTLGKSIALALVSKSVKIGDQLGVVFPGGKLVEALVVKKPFYRGSVRREV	not soluble
MGSDKIHHHHHHMKDINMTVEKGQVAGILGITGCGKTTLLKLLYNGLKNGDRRLIWKGGNYVDAIGRARPNAVYVPQSAPDSLDPVYSVIDQIRKVMQARSVDFDQDLLEKIMSEIGRSPDMLKKKPQALSQGERHIAVVIMALMIRPSLIMMDEPTTSLDAIETLDLLGIIRRFSVQYGISFIISGTSPEVITYASDFVHVMYCGTFVESSQTEDLISNPLHPYTRMIMKMRPSIRTKDLVLDRFIYDCNDYGCPFLNYCEYARDECRSQVSIRRYNDRAGQVRSLAEIMLSAKHVYKTYLEKVSIFKWHENKVIEDFSYDFLSGTRYGIIGVSGSGKTTLASILAGYDRPDSGSIIYSKHPSDGSSIRVRNVFQDTYRFLNPVNTLEWYEKNISAISPDPKLIDKILDAVGLPLERFGSLYIDQLSGGQRQRLAFAMVLSQLPDVLILDEPFSMIDPPNAMVLFSLIRKYLDKSTVIYIDHNIDRVAYLCDHIIAFDKGRIVEEDDVKKIFETQKTEYVEKLIWASEKISSRMKRQP	not soluble
MGHHHHHHGGHMSLDYQKEYERKLISPEEAANLVKDGMHIEIGGSANTALIIDKYLAKRKDELSHVEVGTFIDIAHYEFLKADPEQEKIKWESCFLYEPVRKCSKELGPCVHRPGVLSDAGYIAKELGGVLKGGKKYTDIAFLVTTPMDRHGFFNFGVTCTFLKSIAEGAEKVVVVVKKDMPWVNGGYDECIHISEVDYIVEDNEFPTPFLPFLPPPSKEDEMIAENIMEAGLIENGSTLQVGIGGLPNTVVRMLKEAGLKDLGIHTEMMGDGLMELMEEGIVTNQNKKLDRGKAVFSFALGTRKLYDFLDRNPEVATYPVEYTNNPFVVAQQPKMFSLNQVAQIDLMGQINSGQIGLTSPSGKIFQISGTGGQLDFVLGCFYSFDRQGKSVLATYSTYNGTSRIIPALPTGAGVTVPRSVVQYVATEWGIAYLRGLPIYKRAAAMIQLAHPDHRDWLEEEARKLGILPPKYSIPAGKADGVIYRRDEGGS	soluble
MKNPTVSIIIPVYNAEGTITRCLDSIIHQTYSSIEVIIIDDGSSDLSGSICDNYATKYNYIQVIHKKNEGVSIARQIGVKHSKGLYSIHVDADDYIDKCEIERMMDIALKFNADMVVCDYILEYKKNKFVYQKGMKDACDAFDFLKQIYNGIFIGTLWNKLIKTSLYNNVIFLKQCNYCEDVYILTQILSNNISINYINEALYHYCYDASSLTREINRNYIINRIIFIQEIEKILPLDLDLSRFKAGIKLSILKSGEYTYKEYINLYPNTNIPKELLNKRNLLFLSTANFFIGYQFLKILFNLKKRFKSFHL	not soluble
MNIYVLMKRTFDTEEKIVIKNGAIYDGEAEFIINPYDEYAIEEAIQVRDAQGGEVTVVTVGGEDSEKELRTALAMGCDKAVLINIEDDVENGDQFTTAKVLAEYLKDKDADLILGGNVAIDGASGQVGPRVAEALNIPYVTTITKLEIDGTNVKIERDVEGDTEVVETSLPVLVTAQQGLNEPRYPSLPGIMKAKKKPLEELELDDLDLEEDDVEAKTKTIEIYLPPKKDAGKVLQGELQDQVKELVSLLHTEAKVI	not soluble
GMEFYEVIKKRKSIKKFEQTAIDRDKLLKIIDMAMRAPSWKNKTPYKFIVVESDKLKLDIANAIENKTSAASEAVLNSPMTIVAVANPEESGDVSGKEIYLIDTAIAMEHIVLGATDEGYGTCWIAAFNENKIKEALKIPDNLRVVALTPLGVPKDSAEDEPHHPKKDMDEYLYIDKWGTSFMESNVKILEKN	soluble
DGQLTNLPGGIDEYLKRREALAAQNQSGVVNLGGNNEAASAPVPEKKLSSQEQREITKQMNALERKMGKLDPKIAKINEEMAAAAQRVDTAELTRLDAELNELTAQREGLEMEWMDLGERLES	soluble
VARAVGKENKSEFGVPSVVEMRPPALCEGCGHRDMYITLTEVLKEEYPSHKVFSDIGCYTLGANAPFNAINSCVDMGASITMAKGAADGGLHPSVAVIGDSTFTHSGMTGLLDCVNENANVVIVISDNETTAMTGGQDSAGTGRIESICIGLGVDPAHIRVVVPLKKNHEEMRQIIREEIEYNGVSVIIPRRECIQTLARKKRSK	not soluble
MIAMDIREIGLRLVGEAIKAADPYRAVLNAVKVSDDKIIVQGKEFEIKGKVYVIALGKAACEMARAIEDILDVEDGVAVTKYGYGKELKRIKVIEAGHPIPDEKSILGAKEALSILNRARENDIVFILISGGGSALFELPEEGISLEDLKLTTDLLLKSGAKIHEINTVRKHISKVKGGKLAKMIKGTGIVLIISDVVGDNLEAIASGPTVKDPTTFEDAKRILELYDIWEKVPESVRLHIERGLRGEVEETLKEDLPNVHNFLIASNSISCEAIAREAQRLGFKAYIMTTTLEGEAKDAGLFIGSIVQEIAERGRPFEPPVVLVFGGETTVTIEGKGGKGGPNQEIALSATRKISDLEALIVAFDTDGTDGPTDAAGGIVDGTTYKKLREKGIDVEKVLKEHNSYEALKKVGGLLFTGPTGTNVNSIVIAIVTSKRGRT	soluble
MSEPEEQQPDIHTTAGKLADLRRRIEEATHAGSARAVEKQHAKGKLTARERIDLLLDEGSFVELDEFARHRSTNFGLDANRPYGDGVVTGYGTVDGRPVAVFSQDFTVFGGALGEVYGQKIVKVMDFALKTGCPVVGINDSGGARIQEGVASLGAYGEIFRRNTHASGVIPQISLVVGPCAGGAVYSPAITDFTVMVDQTSHMFITGPDVIKTVTGEDVGFEELGGARTHNSTSGVAHHMAGDEKDAVEYVKQLLSYLPSNNLSEPPAFPEEADLAVTDEDAELDTIVPDSANQPYDMHSVIEHVLDDAEFFETQPLFAPNILTGFGRVEGRPVGIVANQPMQFAGCLDITASEKAARFVRTCDAFNVPVLTFVDVPGFLPGVDQEHDGIIRRGAKLIFAYAEATVPLITVITRKAFGGAYLVMGSKHLGADLNLAWPTAQIAVMGAQGAVNILHRRTIADAGDDAEATRARLIQEYEDALLNPYTAAERGYVDAVIMPSDTRRHIVRGLRQLRTKRESLPPKKHGNIPL	soluble
MVKETKFYDILGVPVTATDVEIKKAYRKCALKYHPDKNPSEEAAEKFKEASAAYEILSDPEKRDIYDQFGEDGLSGAGGAGGFPGGGFGFGDDIFSQFFGAGGAQRPRGPQRGKDIKHEISASLEELYKGRTAKLALNKQILCKECEGRGGKKGAVKKCTSCNGQGIKFVTRQMGPMIQRFQTECDVCHGTGDIIDPKDRCKSCNGKKVENERKILEVHVEPGMKDGQRIVFKGEADQAPDVIPGDVVFIVSERPHKSFKRDGDDLVYEAEIDLLTAIAGGEFALEHVSGDWLKVGIVPGEVIAPGMRKVIEGKGMPIPKYGGYGNLIIKFTIKFPENHFTSEENLKKLEEILPPRIVPAIPKKATVDECVLADFDPAKYNRTRASRGGANYDSDEEEQGGEGVQCASQ	not soluble
